To fix the notation:
B1: human cystatin C (HCC) (other)
chain: SSPGKPPRLVGGPMDASVEEEGVRRALDFAVGEYNKASNDMYHSRALQVVRARKQIVAGVNYFLDVELGRTTCTKTQPNLDNCPFHDQPHLKRKAFCSFQIYAVPWQGTMTLSKSTCQDA
notes: also called intact HCC; complete HCC

No end group written: not given here. *: point of attachment. Biotin = O=C1N[C@H]2[C@H](CS[C@H]2CCCCC(=O)*)N1

One experiment concerns the target T1, β-amyloid (Aβ) Aβ (1-40).
T1 construct: also called Aβ-peptide
Briefly: affinity-MS, Aβ (1-40) on the HCC micro-column.

In the experiment “human cystatin C (HCC)” the target is B1. Briefly: ELISA, biotinylated Aβ-peptides on adsorbed HCC.
Experiment [1] concerns the target T2, N-Cysteinyl-Aβ (1-40) (N-terminal Cys attached via a thioether bond to UltraLink-Iodoacetyl gel).
T2 construct: also called Cys-Aβ (1-40); immobilized Cys-Aβ-peptide
Briefly: affinity-MS, HCC (93-120) on the immobilized Cys-Aβ (1-40) column.

In experiment [2] the target is T2, N-Cysteinyl-Aβ (1-40). Briefly: summary of affinity-MS, epitope excision and ELISA results. In general terms: In an ELISA, binding on a coated surface is turned into a signal by an enzyme label.

Take B1: the binding result in the experiment with β-amyloid (Aβ) Aβ (1-40) is listed as “binds”.

B2: N-terminal peptide Aβ (1-16) (peptide)
peptide: Biotin-GGGGGDAEFRHDSGYEVHHQK
notes: Biotinylated synthetic peptide of the ELISA series
In the case of B2, the binding result in the experiment with human cystatin C (HCC) is recorded as “no binding”.

B3: HCC (93-120)-peptide (peptide)
peptide: RKAFCSFQIYAVPWQGTMTLSKSTCQDA
notes: Synthetic peptide; also called synthetic HCC (93-120)-peptide
With B3, in the experiment with N-Cysteinyl-Aβ (1-40) [1], the binding result was “binds”.

B4: HCC (101-117)-peptide (peptide)
peptide: IYAVPWQGTMTLSKSTC
notes: Synthetic peptide; also called C-terminal HCC peptide
For B4, the binding result in the experiment with N-Cysteinyl-Aβ (1-40) [2] is reported as “binds”.
